Positions count from the first letter of the chain named.
Tests used:
Test in all cases: SPR, Biacore T200, 25 C; FVII(a) variant captured on anti-Gla Ab 4F6, mAb0842(OA) injected
FVII(a) variant S119A = biological target: T1, FVII(a) variant S119A (human, UniProt P08709 61-466)
T1 construct: hFVII alanine variant in cell culture supernatant
T1 sequence: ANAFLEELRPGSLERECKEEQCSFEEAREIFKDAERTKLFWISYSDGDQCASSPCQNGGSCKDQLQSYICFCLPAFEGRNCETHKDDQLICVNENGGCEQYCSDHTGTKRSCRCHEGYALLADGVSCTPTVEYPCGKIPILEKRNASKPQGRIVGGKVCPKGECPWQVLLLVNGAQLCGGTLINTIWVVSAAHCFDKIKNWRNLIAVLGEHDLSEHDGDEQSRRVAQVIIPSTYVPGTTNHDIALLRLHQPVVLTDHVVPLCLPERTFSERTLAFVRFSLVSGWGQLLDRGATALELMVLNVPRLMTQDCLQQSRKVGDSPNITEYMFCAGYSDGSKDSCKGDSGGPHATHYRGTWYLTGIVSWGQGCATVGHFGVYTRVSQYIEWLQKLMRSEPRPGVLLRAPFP
Procedure: (§1) The running buffer was prepared by diluting 10-fold the 10×HBS-P buffer (supplied by GE Healthcare) and supplemented with 1 mg/ml BSA and 5 mM CaCl2 to give 10 mM HEPES, 150 mM NaCl, 0.05% v/v Polysorbate 20, pH 7.4, 5 mM CaCl2, 1 mg/ml bovine serum albumin (BSA). […] Regeneration of the chip was achieved using 10 mM HEPES, 150 mM NaCl, 20 mM EDTA, 0.05 v/v Polysorbate 20, pH 7.4. Binding data were analysed according to a 1:1 Kinetic model and steady state analysis using BiaEvaluation 4.1 supplied by the manufacturer (Biacore AB, Uppsala, Sweden). Wherever possible, ka, kd and KD values from 1:1 kinetic fitting model are reported. […] An amino acid residue is considered a hot-spot residue if substitution of that amino acid residue with alanine results in an affinity reduction of ten (10) fold or more relative to the wild type.

FVII(a) variant E394A = biological target: T2, FVII(a) variant E394A (human, UniProt P08709 61-466)
T2 construct: hFVII alanine variant in cell culture supernatant
T2 sequence: T1 sequence with A119S, E394A
Procedure: as §1

FVII(a) variant G117A = biological target: T3, FVII(a) variant G117A (human, UniProt P08709 61-466)
T3 construct: hFVII alanine variant in cell culture supernatant
T3 sequence: T1 sequence with G117A, A119S
Procedure: as §1

FVII(a) variant R113A = biological target: T4, FVII(a) variant R113A (human, UniProt P08709 61-466)
T4 construct: hFVII alanine variant in cell culture supernatant
T4 sequence: T1 sequence with R113A, A119S
Procedure: as §1

FVII(a) variant I186A = biological target: T5, FVII(a) variant I186A (human, UniProt P08709 61-466)
T5 construct: hFVII alanine variant in cell culture supernatant
T5 sequence: T1 sequence with A119S, I186A
Procedure: as §1

Kd (FVII(a) variant S119A): 0.31 nM
Kd (FVII(a) variant E394A): 0.79 nM
Kd (FVII(a) variant G117A): 0.31 nM
Kd (FVII(a) variant R113A): 0.29 nM
Kd (FVII(a) variant I186A): 0.39 nM
B1: mAb0842(OA) (antibody, human IgG4 S228P, kappa)
heavy: QVQLQESGPGLVKPSQTLSLTCTVSGYSISSDSAWSWIRQPPGKGLEWIGYIQYSGSTNYNPSLKSRVTISRDTSKNQFSLKLSSVTAADTAVYYCARSVNYYGNSFAVGYWGQGTLVTVSSASTKGPSVFPLAPCSRSTSESTAALGCLVKDYFPEPVTVSWNSGALTSGVHTFPAVLQSSGLYSLSSVVTVPSSSLGTKTYTCNVDHKPSNTKVDKRVESKYGPPCPPCPAPEFLGGPSVFLFPPKPKDTLMISRTPEVTCVVVDVSQEDPEVQFNWYVDGVEVHNAKTKPREEQFNSTYRVVSVLTVLHQDWLNGKEYKCKVSNKGLPSSIEKTISKAKGQPREPQVYTLPPSQEEMTKNQVSLSCAVKGFYPSDIAVEWESNGQPENNYKTTPPVLDSDGSFFLVSRLTVDKSRWQEGNVFSCSVMHEALHNHYTQKSLSLSLGK
light: EIVLTQSPATLSLSPGERATLSCRASQGISDYLHWYQQKPGEAPRLLIKYTSQPATGIPARFSGSGSGTDFTLTISSLEPEDFAVYYCQNGHSFPLTFGQGTKLEIKRTVAAPSVFIFPPSDEQLKSGTASVVCLLNNFYPREAKVQWKVDNALQSGNSQESVTEQDSKDSTYSLSSTLTLSKADYEKHKVYACEVTHQGLSSPVTKSFNRGEC
chain: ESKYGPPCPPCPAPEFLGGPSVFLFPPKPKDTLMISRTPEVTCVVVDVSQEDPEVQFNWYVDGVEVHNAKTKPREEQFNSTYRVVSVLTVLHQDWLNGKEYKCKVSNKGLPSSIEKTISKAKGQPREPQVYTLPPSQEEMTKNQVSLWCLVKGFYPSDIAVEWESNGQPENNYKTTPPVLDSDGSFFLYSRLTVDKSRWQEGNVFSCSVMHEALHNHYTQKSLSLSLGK
notes: also called monovalent humanized 11F2 antibody; one-armed anti-FVII(a) antibody
